Results: article PMC9226187, “Probing TDP-43 condensation using an in silico designed aptamer”

B1: Apt-1 (ssRNA)
RNA: CGGUGUUGCU
B2: nApt-1 (ssRNA)
RNA: AGCAACACCG

Target: TDP-43 RRM1-2 (UniProt Q13148 102-269)
Test: BLI; BLI: 10 mM potassium phosphate pH 7.2, 150 mM KCl, 0.01% Tween20, 25 °C; biotin-RNA on streptavidin sensors, protein 20 nM-20 µM; PAINT in PBS
Conditions: protein: recombinant, tags: His6-SUMO tag cleaved (TEV)

TDP-43 RRM1-2, sequence (Q13148 102-269): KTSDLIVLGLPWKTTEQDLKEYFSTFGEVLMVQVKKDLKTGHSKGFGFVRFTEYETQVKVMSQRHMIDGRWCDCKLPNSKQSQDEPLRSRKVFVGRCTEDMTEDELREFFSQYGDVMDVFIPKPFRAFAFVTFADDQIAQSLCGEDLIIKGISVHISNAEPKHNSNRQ

| Binder | Kd (label: 3' biotin, linear, single-stranded) | Kd (label: 5' biotin) |
| --- | --- | --- |
| B1 | 100 ± 10 nM | – |
| B2 | – | 1730 nM |
